Measurements reported in US20190375831A1.

Columns and labels:
[1] = biological target: recombinant PfCSP (rPfCSP, residues 21-375) (Plasmodium falciparum) (UniProt P19597); assay: biolayer interferometry, biotinylated CSP on the sensor, whole IgG in solution; apparent KD
[2] = biological target: recombinant PfCSP (rPfCSP, residues 21-375) (Plasmodium falciparum) (UniProt P19597); assay: ELISA on coated rPfCSP, OD405nm
[3] = biological target: recombinant PfCSP (rPfCSP, residues 21-375) (Plasmodium falciparum) (UniProt P19597)

Sequence of recombinant PfCSP (rPfCSP, residues 21-375) (Plasmodium falciparum) (P19597 21-375): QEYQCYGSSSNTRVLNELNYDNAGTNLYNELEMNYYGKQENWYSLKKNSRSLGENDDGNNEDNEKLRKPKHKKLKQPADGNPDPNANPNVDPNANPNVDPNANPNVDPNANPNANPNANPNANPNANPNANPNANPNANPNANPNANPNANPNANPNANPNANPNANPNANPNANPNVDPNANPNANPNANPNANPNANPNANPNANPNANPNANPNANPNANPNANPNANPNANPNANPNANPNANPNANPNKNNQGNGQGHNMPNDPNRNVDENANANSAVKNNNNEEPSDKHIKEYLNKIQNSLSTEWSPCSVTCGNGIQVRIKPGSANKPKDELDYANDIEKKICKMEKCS

Q: What does the source list for mAb2A10 (antibody)?
A: Kd [1]: 0.15 nM; EC50 (read off the curve) [2]: 0.04 µg/mL

Q: With mAb CIS43 (antibody) as the substance, how does the Kd [1] read?
A: 0.91 nM

Q: And the -TΔS1 [3]?
A: 8.4 kcal/mol

Q: What about the -TΔS2 [3] of the same substance?
A: 0.1 kcal/mol

Q: And the N1 (stoichiometry) [3]?
A: 1.2

Q: And the N2 (stoichiometry) [3]?
A: 5.1

Q: What about the ΔH1 [3] of the same substance?
A: -19.5 kcal/mol

Q: What about the ΔH2 [3] of the same substance?
A: -10.2 kcal/mol

Q: And the EC50 (read off the curve) [2]?
A: 0.003 µg/mL
